Measured values from article PMC6158212.

Target: GP ectodomain of EBOV strain Mayinga-76 with a deleted mucin-like domain (EBOV GPΔMuc) (Zaire EBOV strain Mayinga-76)
Assay: crystal structure

## GP ectodomain of EBOV strain Mayinga-76 with a deleted mucin-like domain (EBOV GPΔMuc) (complex)
  stoichiometry N: 3
